From paper PMC4585563, “Small angle X-ray scattering studies of CTNNBL1 dimerization and CTNNBL1/CDC5L complex” (Scientific Reports, 2015)

T1: CTNNBL1 (residues 77-563), wild type (human, UniProt Q8WYA6 77-563)
T1 construct: human CTNNBL1, residues 77-563, amplified from a human cDNA library; Dimer by SAXS at 0-200 mM NaCl and by SEC at 150 mM NaCl; monomer at 300-400 mM NaCl; also called native CTNNBL1; wild-type CTNNBL1; source: E. coli BL21(DE3)-T1R, purified (Ni-NTA, TEV protease, Ni-NTA, Superdex200); not shown: 6xHis, N-terminal, cleaved; VHb (bacterial hemoglobin), N-terminal, cleaved
T1 sequence (looked up): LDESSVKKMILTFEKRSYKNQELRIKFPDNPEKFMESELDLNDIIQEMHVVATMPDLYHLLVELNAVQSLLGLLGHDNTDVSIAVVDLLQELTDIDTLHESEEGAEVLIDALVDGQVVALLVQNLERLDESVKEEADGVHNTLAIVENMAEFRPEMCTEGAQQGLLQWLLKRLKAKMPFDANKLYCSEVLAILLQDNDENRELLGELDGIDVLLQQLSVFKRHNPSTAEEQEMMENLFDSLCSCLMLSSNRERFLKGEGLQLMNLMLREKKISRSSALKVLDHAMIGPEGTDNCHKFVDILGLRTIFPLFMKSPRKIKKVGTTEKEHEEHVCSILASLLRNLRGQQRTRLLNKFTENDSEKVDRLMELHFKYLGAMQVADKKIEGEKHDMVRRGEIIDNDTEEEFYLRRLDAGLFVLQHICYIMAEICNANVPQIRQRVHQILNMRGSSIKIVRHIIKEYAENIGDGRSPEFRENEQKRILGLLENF

B1: CDC5L^141-235 (domain or fragment, human, UniProt Q99459 141-235, looked up)
chain: PIDMDEDELEMLSEARARLANTQGKKAKRKAREKQLEEARRLAALQKRRELRAAGIEIQKKRKRKRGVDYNAEIPFEKKPALGFYDTSEENYQAL
notes: CDC5L of the human hPrp19/CDC5L complex, residues 141-235; holds NLS3 (residues 200-206: KKRKRKR); cloned into pPosKJ; pPosKJ adds 6xHis and VHb, both removed only by TEV protease; the His-tagged proteins were made without TEV, so VHb should still be on the chain in the pull-down; also called 6xHis-tagged CDC5L 141-235; source: E. coli, purified as CTNNBL1 with 300 mM NaCl in the buffers, without …
B2: CTNNBL1^E278A (domain or fragment, human, UniProt Q8WYA6 77-563, looked up)
chain: LDESSVKKMILTFEKRSYKNQELRIKFPDNPEKFMESELDLNDIIQEMHVVATMPDLYHLLVELNAVQSLLGLLGHDNTDVSIAVVDLLQELTDIDTLHESEEGAEVLIDALVDGQVVALLVQNLERLDESVKEEADGVHNTLAIVENMAEFRPEMCTEGAQQGLLQWLLKRLKAKMPFDANKLYCSEVLAILLQDNDENRALLGELDGIDVLLQQLSVFKRHNPSTAEEQEMMENLFDSLCSCLMLSSNRERFLKGEGLQLMNLMLREKKISRSSALKVLDHAMIGPEGTDNCHKFVDILGLRTIFPLFMKSPRKIKKVGTTEKEHEEHVCSILASLLRNLRGQQRTRLLNKFTENDSEKVDRLMELHFKYLGAMQVADKKIEGEKHDMVRRGEIIDNDTEEEFYLRRLDAGLFVLQHICYIMAEICNANVPQIRQRVHQILNMRGSSIKIVRHIIKEYAENIGDGRSPEFRENEQKRILGLLENF
notes: human CTNNBL1, residues 77-563, point mutant made by site-directed mutagenesis; source: E. coli, purified as wild-type CTNNBL1; not shown: 6xHis, N-terminal, cleaved; VHb (bacterial hemoglobin), N-terminal, cleaved
B3: CTNNBL1^Q199R (domain or fragment, human, UniProt Q8WYA6 77-563, looked up)
chain: LDESSVKKMILTFEKRSYKNQELRIKFPDNPEKFMESELDLNDIIQEMHVVATMPDLYHLLVELNAVQSLLGLLGHDNTDVSIAVVDLLQELTDIDTLHESEEGAEVLIDALVDGQVVALLVRNLERLDESVKEEADGVHNTLAIVENMAEFRPEMCTEGAQQGLLQWLLKRLKAKMPFDANKLYCSEVLAILLQDNDENRELLGELDGIDVLLQQLSVFKRHNPSTAEEQEMMENLFDSLCSCLMLSSNRERFLKGEGLQLMNLMLREKKISRSSALKVLDHAMIGPEGTDNCHKFVDILGLRTIFPLFMKSPRKIKKVGTTEKEHEEHVCSILASLLRNLRGQQRTRLLNKFTENDSEKVDRLMELHFKYLGAMQVADKKIEGEKHDMVRRGEIIDNDTEEEFYLRRLDAGLFVLQHICYIMAEICNANVPQIRQRVHQILNMRGSSIKIVRHIIKEYAENIGDGRSPEFRENEQKRILGLLENF
notes: as for B2
B4: CTNNBL1^G148R (domain or fragment, human, UniProt Q8WYA6 77-563, looked up)
chain: LDESSVKKMILTFEKRSYKNQELRIKFPDNPEKFMESELDLNDIIQEMHVVATMPDLYHLLVELNAVQSLLRLLGHDNTDVSIAVVDLLQELTDIDTLHESEEGAEVLIDALVDGQVVALLVQNLERLDESVKEEADGVHNTLAIVENMAEFRPEMCTEGAQQGLLQWLLKRLKAKMPFDANKLYCSEVLAILLQDNDENRELLGELDGIDVLLQQLSVFKRHNPSTAEEQEMMENLFDSLCSCLMLSSNRERFLKGEGLQLMNLMLREKKISRSSALKVLDHAMIGPEGTDNCHKFVDILGLRTIFPLFMKSPRKIKKVGTTEKEHEEHVCSILASLLRNLRGQQRTRLLNKFTENDSEKVDRLMELHFKYLGAMQVADKKIEGEKHDMVRRGEIIDNDTEEEFYLRRLDAGLFVLQHICYIMAEICNANVPQIRQRVHQILNMRGSSIKIVRHIIKEYAENIGDGRSPEFRENEQKRILGLLENF
notes: as for B2
B5: CTNNBL1^Q192R (domain or fragment, human, UniProt Q8WYA6 77-563, looked up)
chain: LDESSVKKMILTFEKRSYKNQELRIKFPDNPEKFMESELDLNDIIQEMHVVATMPDLYHLLVELNAVQSLLGLLGHDNTDVSIAVVDLLQELTDIDTLHESEEGAEVLIDALVDGRVVALLVQNLERLDESVKEEADGVHNTLAIVENMAEFRPEMCTEGAQQGLLQWLLKRLKAKMPFDANKLYCSEVLAILLQDNDENRELLGELDGIDVLLQQLSVFKRHNPSTAEEQEMMENLFDSLCSCLMLSSNRERFLKGEGLQLMNLMLREKKISRSSALKVLDHAMIGPEGTDNCHKFVDILGLRTIFPLFMKSPRKIKKVGTTEKEHEEHVCSILASLLRNLRGQQRTRLLNKFTENDSEKVDRLMELHFKYLGAMQVADKKIEGEKHDMVRRGEIIDNDTEEEFYLRRLDAGLFVLQHICYIMAEICNANVPQIRQRVHQILNMRGSSIKIVRHIIKEYAENIGDGRSPEFRENEQKRILGLLENF
notes: as for B2

Experiments:
[1] = biological target: T1, CTNNBL1 (residues 77-563), wild type; assay: pull-down; 6xHis-tagged CDC5L truncations mixed with untagged CTNNBL1 in 50 mM Tris-HCl pH 8.0, 300 mM NaCl, dialysed against 50 mM Tris-HCl without NaCl at 4 °C overnight, loaded on Ni-NTA resin, washed with 10 mM imidazole, eluted with 300 mM imidazole, SDS-PAGE; settings: both partners purified
[2] = biological target: the molecule itself; assay: SEC; Superdex 200 10/300, 500 μl of 2 mg/ml protein, 0.5 ml/min, 40 mM Tris-HCl pH 8.0, 150 mM NaCl; molecular weight from calibration standards

Row | Binder | binding result [1] | stoichiometry N [2]
1 | B1 | binds | –
2 | B2 | – | 2
3 | B3 | – | 2
4 | B4 | – | 2
5 | B5 | – | 2
